Reference: publication PMC8353492

Tests used:
[1] = biological target: NOX2 phox complex (rhodamine-tagged cytochrome b558 (gp91 plus p22), p40, p47 and p67), cell-free system (UniProt P04839); test: rhodamine fluorescence intensity over time; fully preactivated (GTP-bound) Rac added to the cell-free NOX2 phox complex with rhodamine-tagged cytochrome b558 (subunits 100 nM), SDS 100 μM; 10 mM MgCl2, 50 mM KCl, 1 mM NaCl, 0.2 mM NADPH, 10 mM GTP, 10 mM Mops pH 7.4
[2] = biological target: NOX2 phox complex (rhodamine-tagged cytochrome b558 (gp91 plus p22), p40, p47 and p67), cell-free system (UniProt P04839); test: rhodamine fluorescence intensity over time; initially inactive (GDP-bound) Rac added to the cell-free NOX2 phox complex with rhodamine-tagged cytochrome b558 after a fraction of preactivated wt Rac (∼2 mol %); SDS 100 μM; assay buffer with NADPH and GTP, pH 7.4; also with H2O2 (unaffected) or ascorbic acid 10 mM (enhanced)

| Substance | fold slower binding than wt Rac [1] [fold] | fold slower rate of binding than wt Rac [2] [fold] |
| --- | --- | --- |
| K132E Rac (from UniProt P63000 1-192) (natural protein) | 1.5 | 1.5 |
| L134R Rac (from UniProt P63000 1-192) (natural protein) | 1.5 | 1.5 |
